From patent publication US8512703B2, “Idiotypic vaccine” (Areta International S.R.L., priority 2007, dated 2013)

Key:
Experiment in all cases: iTopia ELISA-like peptide-HLA binding
[1] = target: T1, Class I HLA molecule A*0101 in recombinant form
T1 MHC heavy: not shown
Description: (§1) In order to identify and validate the immunogenic epitopes of the protein VK3-20, the iTopia™ high-throughput Epitope Discovery System was used (Beckman Coulter).

[2] = target: T2, Class I HLA molecule A*0201 in recombinant form
T2 construct: also called HLA-A*0201
T2 MHC heavy: not shown
Description: as §1

[3] = target: Class I HLA molecule A*0301 in recombinant form (UniProt P04439 25-302)
Description: as §1

[4] = target: T3, Class I HLA molecule A*1101 in recombinant form (UniProt P04439 25-302)
T3 MHC heavy: not shown
Description: as §1

[5] = target: T4, Class I HLA molecule A*2402 in recombinant form
T4 MHC heavy: not shown
Description: as §1

[6] = target: T5, Class I HLA molecule B*0801 in recombinant form (UniProt P01889 25-309, limits assumed)
T5 MHC heavy: not shown
Description: as §1

[7] = target: T6, Class I HLA molecule B*1501 in recombinant form (limits assumed)
T6 MHC heavy: not shown
Description: as §1

[8] = target: Class I HLA molecule B*0702 in recombinant form (UniProt P01889 25-302)
Description: as §1

| Binder | Bond results [1] | Bond results [2] | Bond results [3] | Bond results [4] | Bond results [5] | Bond results [6] | Bond results [7] | Bond results [8] |
| --- | --- | --- | --- | --- | --- | --- | --- | --- |
| YLAWYQQKP [VK3-20 peptide No 33 YLAWYQQKP] | 0% | 41% | 4% | 2% | 14% | 2% | 2% |  |
| SYLAWYQQK [VK3-20 peptide No 32 SYLAWYQQK] | 0% | 10% | 23% | 28% | 29% | 1% | 0% | 4% |
| SPRTFGQGT [VK3-20 peptide No 95 SPRTFGQGT] | 1% | 0% | 2% | 0% | 12% | 2% | 2% | 41% |
| FTLTISRLE [VK3-20 peptide No 72 FTLTISRLE] | 4% | 22% | 2% | 4% | 18% | 6% | 3% | 11% |
| TQSPGTLSF [VK3-20 peptide No 5 TQSPGTLSF] | 1% | 3% | 1% | 0% | 28% | 2% | 44% | 0% |
| ASQIVSSSY [VK3-20 peptide No 25 ASQIVSSSY] |  |  | 2% |  | 13% | 2% | 49% |  |
| QYGSSPRTF [VK3-20 peptide No 91 QYGSSPRTF] | 1% | 0% | 1% | 1% | 65% | 1% | 2% |  |
| SQIVSSSYL [VK3-20 peptide No 26 SQIVSSSYL] | 1% | 24% | 4% | 3% | 16% | 3% | 19% | 10% |
| GQAPRLLIY [VK3-20 peptide No 42 GQAPRLLIY] | 0% | 10% | 10% |  | 12% | 2% | 49% |  |
| RLEPEDFAV [VK3-20 peptide No 78 RLEPEDFAV] | 1% | 19% | 2% | 2% |  | 0% | 2% | 4% |
| IVSSSYLAW [VK3-20 peptide No 28 IVSSSYLAW] | 0% |  | 4% | 3% | 34% | 2% | 0% |  |
| VLTQSPGTL [VK3-20 peptide No 3 VLTQSPGTL] | 0% | 23% | 2% | 0% | 18% | 1% | 0% | 0% |
| RTFGQGTKV [VK3-20 peptide No 97 RTFGQGTKV] | 1% | 30% | 37% | 15% |  | 2% | 4% | 1% |
| RLLIYGASS [VK3-20 peptide No 46 RLLIYGASS] | 0% | 24% | 0% |  | 0% | 0% | 0% | 0% |
| IVLTQSPGT [VK3-20 peptide No 2 IVLTQSPGT] | 1% | 22% | 1% | 1% | 11% | 2% | 0% | 1% |
| QQYGSSPRT [VK3-20 peptide No 90 QQYGSSPRT] | 1% | 12% | 3% | 11% |  | 1% | 24% |  |
| KPGQAPRLL [VK3-20 peptide No 40 KPGQAPRLL] | 0% | 2% | 2% | 0% |  | 1% | 0% | 29% |
| LLIYGASSR [VK3-20 peptide No 47 LLIYGASSR] | 0% | 33% | 4% | 85% |  | 1% |  | 4% |
| VYYCQQYGS [VK3-20 peptide No 86 VYYCQQYGS] | 1% | 1% | 0% | 1% | 21% | 0% | 1% |  |
| LIYGASSRA [VK3-20 peptide No 48 LIYGASSRA] | 1% | 32% |  | 60% |  | 3% | 11% |  |
| TLSCRASQI (also called P20) [VK3-20 peptide No 20 TLSCRASQI] | 1% | 28% | 2% | 2% | 14% |  | 1% | 3% |
| VSSSYLAWY [VK3-20 peptide No 29 VSSSYLAWY] | 44% | 4% | 2% |  | 12% | 1% | 2% | 1% |
